Assay results: paper PMC3865722 (2014)

Key:
Assay in all cases: competitive inhibition of Tra2β
Tra2β(ΔN) 114-288 = biological target: T1, Tra2β(ΔN) 114-288 (Homo sapiens, UniProt P62995)
T1 chain: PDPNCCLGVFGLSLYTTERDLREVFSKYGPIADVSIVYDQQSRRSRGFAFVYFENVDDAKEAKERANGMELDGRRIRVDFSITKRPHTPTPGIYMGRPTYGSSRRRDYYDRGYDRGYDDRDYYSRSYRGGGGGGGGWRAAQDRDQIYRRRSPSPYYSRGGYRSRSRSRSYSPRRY

[1] = biological target: T2, Tra2β(ΔN/RRM) C-terminal RS domain (Homo sapiens, UniProt P62995)
T2 chain: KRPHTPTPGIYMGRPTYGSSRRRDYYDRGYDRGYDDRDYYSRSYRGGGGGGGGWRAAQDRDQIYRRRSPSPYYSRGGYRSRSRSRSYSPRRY

[2] = biological target: T3, Tra2β(ΔN/RS2) RRM and N-terminal half of C-terminal RS domain (Homo sapiens, UniProt P62995)
T3 chain: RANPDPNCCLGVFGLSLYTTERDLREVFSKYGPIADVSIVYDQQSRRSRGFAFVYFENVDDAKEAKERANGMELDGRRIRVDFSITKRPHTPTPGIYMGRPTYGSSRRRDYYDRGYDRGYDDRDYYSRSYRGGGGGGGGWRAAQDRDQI

Ki (Tra2β(ΔN) 114-288): 11 nM
Ki [1]: 45 nM
Ki [2]: 180 nM
B1: SRPK1 (protein)
chain: MERKVLALQARKKRTKAKKDKAQRKSETQHRGSAPHSESDLPEQEEEILGSDDDEQEDPNDYCKGGYHLVKIGDLFNGRYHVIRKLGWGHFSTVWLSWDIQGKKFVAMKVVKSAEHYTETALDEIRLLKSVRNSDPNDPNREMVVQLLDDFKISGVNGTHICMVFEVLGHHLLKWIIKSNYQGLPLPCVKKIIQQVLQGLDYLHTKCRIIHTDIKPENILLSVNEQYIRRLAAEATEWQRSGAPPPSGSAVSTAPQPKPADKMSKNKKKKLKKKQKRQAELLEKRMQEIEEMEKESGPGQKRPNKQEESESPVERPLKENPPNKMTQEKLEESSTIGQDQTLMERDTEGGAAEINCNGVIEVINYTQNSNNETLRHKEDLHNANDCDVQNLNQESSFLSSQNGDSSTSQETDSCTPITSEVSDTMVCQSSSTVGQSFSEQHISQLQESIRAEIPCEDEQEQEHNGPLDNKGKSTAGNFLVNPLEPKNAEKLKVKIADLGNACWVHKHFTEDIQTRQYRSLEVLIGSGYNTPADIWSTACMAFELATGDYLFEPHSGEEYTRDEDHIALIIELLGKVPRKLIVAGKYSKEFFTKKGDLKHITKLKPWGLFEVLVEKYEWSQEEAAGFTDFLLPMLELIPEKRATAAECLRHPWLNS
